From patent publication US20020141999A1 come the findings set out here.

The target of this experiment is HuCD7-TR (human CD7 containing an internal deletion of the 36 amino acid tandem repeat) (human) (UniProt P09564). The experiment is described as follows: HuK12-Fc on transfected COS-1 cells, 125I anti-human Fc, phosphorimager.
Chain of HuCD7-TR (human CD7 containing an internal deletion of the 36 amino acid tandem repeat) (human) (P09564 other isoform, or with tags, fused parts or gaps limits assumed): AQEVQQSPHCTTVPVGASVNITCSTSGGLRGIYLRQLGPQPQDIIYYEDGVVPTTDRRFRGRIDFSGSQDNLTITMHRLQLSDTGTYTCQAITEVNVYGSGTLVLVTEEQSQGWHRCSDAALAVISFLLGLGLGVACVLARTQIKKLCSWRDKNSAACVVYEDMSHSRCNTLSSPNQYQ

B1: human K12-Fc fusion protein (extracellular domain of human K12 fused to the Fc portion of human IgG1) (Fc fusion, not shown: a dimerising Fc or GST)
chain: QNEGWDSPICTEGVVSVSWGENTVMSCNISNAFSHVNIKLRAHGQESAIFNEVAPGYFSRDGWQLQVQGGVAQLVIKGARDSHAGLYMWHLVGHQRNNRQVTLEVSGAEPQSAPDTG
Take B1: the fold less relative binding than to full length HuCD7 amounted to 10 fold.
